In article PMC4787601:

Biological target: phospholamban peptide, first 21 amino acids, wild type (UniProt P26678)
Test: SPR

Chain of UniProt P26678 (P26678 1-21): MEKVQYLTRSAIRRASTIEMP

Kd: 0.0133 µM
Substance: purified AKAP7γ (from UniProt Q9P0M2 1-348) (natural protein)
